The source of these data is the supplement of paper PMC12042874.

± gives the uncertainty stated by the source.

This data set in a line: amyloid nucleation score (Sup35N fusion, yeast selection) (log enrichment); library NNK3; higher = more nucleation; inactive = no reads after selection. An outline of the steps:
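DiMSum was used to calculate nucleation scores as log enrichment of output over input reads, centred on the mode score of non-aggregating sequences. Sequences with fewer than 100 input reads were not scored. Input and output came from Illumina sequencing of plasmid inserts in psi-negative yeast expressing peptides of 20 random codons fused to Sup35N, induced 24 hours with 100 μM copper sulfate and then grown 7 days at 30°C on medium lacking adenine and uracil.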
On to ICIHLELRILCPHHAPDGSL, for which the amyloid nucleation score is -0.118 ± 0.43.

For ICKRYYLPINFRG, the amyloid nucleation score entry is “inactive”.

In turn, ICLAFRPECCCGIWTDKRIG displayed an amyloid nucleation score of 1.74 ± 0.088.

As to ICTCKWRLTLEQTSFVDGLT, the amyloid nucleation score entry was “inactive”.

ICTGDSNNSGYVCQLVTKEE: the amyloid nucleation score result was “inactive”.

IDCLLLFSIGEVLKSGNNSR: the amyloid nucleation score stood at 0.335 ± 0.17. Consider IDGTCFARIFRCCIFYLR, for which the amyloid nucleation score result is “inactive”. In the case of IDPQS, the amyloid nucleation score result is “inactive”. For the substance IDTTQVLGMNS, the amyloid nucleation score entry was “inactive”. Next, IDVKMGSYFVYHDGLFIFRV: “inactive”; IDYSNVYSISRPSMFCWRNN: “inactive”; IECRARRSVCLL: “inactive”.

Regarding IEFMCLHGKVTLITIVF, the amyloid nucleation score entry is “inactive”. Next, IEGSKSDNIGIVHDFMFES: “inactive”; IENNSPLSSFLGYGKCIP: “inactive”; IFASDTVL: “inactive”. IFIMKARSKFPRVPFFQEFP gave an amyloid nucleation score of 1.23 ± 0.13. IFKNTVTLRN: the amyloid nucleation score entry was “inactive”.

IFLCLSICMFRPFRMVLS: the amyloid nucleation score entry is “inactive”. For IFNLHWDTMLSIHMSIDALR, the amyloid nucleation score is 1.91 ± 0.1. Then IFTVCHVGSACSGNCTGQ, with 3.01 ± 0.06.

In the case of IFVFLHLHLIWFYSSSWLMD, the amyloid nucleation score result was “inactive”.

Consider IFVGVSYVHFRLEH, for which the amyloid nucleation score came out at 1.8 ± 0.099. Next, IFVLLVRANV: -0.449 ± 0.7. IFVLQGRKYSSTSWLITHHC: the amyloid nucleation score entry is “inactive”.

As to IFVVP, the amyloid nucleation score entry is “inactive”. For IFWVSRSDA, the amyloid nucleation score entry was “inactive”. For IFYCLSYLGTSVVEIHCLYA, the amyloid nucleation score entry was “inactive”. Regarding IFYVLSTMNDSIVV, the amyloid nucleation score result is “inactive”. With IGAWHVLITGCTFQEIPR, the amyloid nucleation score stood at 1.88 ± 0.064. With IGCEQDADNYNRSWWIWMKF, the amyloid nucleation score entry is “inactive”. Regarding IGEPCLWNSV, the amyloid nucleation score result was “inactive”. Then IGITHFRTCDGHNVRGRNRW, with “inactive”. Next, IGKKVCMCRDKGGLIGLRGG: “inactive”; IGLFNTNVWKCFDCDTPAMF: “inactive”; IGLLYLHLPNIALINRSVVG: “inactive”. IGMYNEGFGMVLMTCPRLFF registered an amyloid nucleation score of 2.09 ± 0.077. On to IGRPGVRYNLKCRGRIRG, for which the amyloid nucleation score result is “inactive”. IGRVNSSGVQDGSHCYECES displayed an amyloid nucleation score of 0.481 ± 0.27. As for IGVDVTYSKGLSGTIDKSLG, the amyloid nucleation score entry is “inactive”.

Regarding IHILFGTSWLMTRLFCLVK, the amyloid nucleation score result is “inactive”. For the substance IHKTFLTL, the amyloid nucleation score result was “inactive”. Substance IHLRDMSLS registered an amyloid nucleation score of 0.591 ± 0.16.

The substance IIFFWILS registered an amyloid nucleation score of 0.16 ± 0.29. For IIMISLITYFLSLNTSKLYQ, the amyloid nucleation score result was “inactive”. With IIRCKMM, the amyloid nucleation score is -0.538 ± 0.57. Then IIRMMFISFN, with 1.84 ± 0.076.

For the substance IISMPLGACMKAARMSF, the amyloid nucleation score result was “inactive”.

IITSLK displayed an amyloid nucleation score of 0.154 ± 0.27. As for IIVTL, the amyloid nucleation score entry was “inactive”. With IIYPAMTHFLSYMYRVNCVS, the amyloid nucleation score entry was “inactive”. In the case of IIYVNTSEGVSVFRNWSDDV, the amyloid nucleation score entry was “inactive”. In turn, IKATWRSFMCVIFNLLLLP yielded an amyloid nucleation score of -0.184 ± 1.3. For IKCMNTLTDCCGMV, the amyloid nucleation score result is “inactive”.

For IKCVCFLCPNQ, the amyloid nucleation score amounted to 1.02 ± 0.19.
